Measured values taken from patent US6699869.

Test system: (D)FPR-PNA

In the case of bovine thrombin (from Sigma), the “Kcat/KM of substrate hydrolysis” value is reported as “thrombin: Kcat/KM=2.20×10^7 M^-1 S^-1”.
